Results reported in patent US20220017591A1 (AstraZeneca / MedImmune, published 2022).
Substitutions are numbered along the chain they refer to.

T1: mouse RXFP1 (mouse, UniProt Q6R6I7 1-758)
T1 sequence (looked up): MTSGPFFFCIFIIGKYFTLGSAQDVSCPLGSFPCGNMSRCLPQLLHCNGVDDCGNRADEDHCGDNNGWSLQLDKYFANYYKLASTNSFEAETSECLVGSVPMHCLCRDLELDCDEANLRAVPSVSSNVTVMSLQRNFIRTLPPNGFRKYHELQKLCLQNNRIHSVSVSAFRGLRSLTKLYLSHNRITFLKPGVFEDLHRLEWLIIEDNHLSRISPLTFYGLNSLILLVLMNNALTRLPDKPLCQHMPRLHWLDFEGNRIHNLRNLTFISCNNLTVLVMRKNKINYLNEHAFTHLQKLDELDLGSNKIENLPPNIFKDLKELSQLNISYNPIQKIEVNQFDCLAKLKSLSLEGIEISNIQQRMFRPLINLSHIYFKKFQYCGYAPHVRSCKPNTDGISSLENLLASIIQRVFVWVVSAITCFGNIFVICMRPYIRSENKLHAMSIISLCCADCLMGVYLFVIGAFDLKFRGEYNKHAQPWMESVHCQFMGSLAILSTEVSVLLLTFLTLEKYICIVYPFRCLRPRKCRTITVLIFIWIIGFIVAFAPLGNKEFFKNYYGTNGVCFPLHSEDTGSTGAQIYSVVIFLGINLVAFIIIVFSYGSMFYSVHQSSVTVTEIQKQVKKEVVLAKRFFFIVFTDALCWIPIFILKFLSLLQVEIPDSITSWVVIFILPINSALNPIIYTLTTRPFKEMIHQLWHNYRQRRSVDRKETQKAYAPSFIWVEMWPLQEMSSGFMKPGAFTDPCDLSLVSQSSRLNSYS

T2: human RXFP1 (human, UniProt Q9HBX9 1-757)
T2 sequence (looked up): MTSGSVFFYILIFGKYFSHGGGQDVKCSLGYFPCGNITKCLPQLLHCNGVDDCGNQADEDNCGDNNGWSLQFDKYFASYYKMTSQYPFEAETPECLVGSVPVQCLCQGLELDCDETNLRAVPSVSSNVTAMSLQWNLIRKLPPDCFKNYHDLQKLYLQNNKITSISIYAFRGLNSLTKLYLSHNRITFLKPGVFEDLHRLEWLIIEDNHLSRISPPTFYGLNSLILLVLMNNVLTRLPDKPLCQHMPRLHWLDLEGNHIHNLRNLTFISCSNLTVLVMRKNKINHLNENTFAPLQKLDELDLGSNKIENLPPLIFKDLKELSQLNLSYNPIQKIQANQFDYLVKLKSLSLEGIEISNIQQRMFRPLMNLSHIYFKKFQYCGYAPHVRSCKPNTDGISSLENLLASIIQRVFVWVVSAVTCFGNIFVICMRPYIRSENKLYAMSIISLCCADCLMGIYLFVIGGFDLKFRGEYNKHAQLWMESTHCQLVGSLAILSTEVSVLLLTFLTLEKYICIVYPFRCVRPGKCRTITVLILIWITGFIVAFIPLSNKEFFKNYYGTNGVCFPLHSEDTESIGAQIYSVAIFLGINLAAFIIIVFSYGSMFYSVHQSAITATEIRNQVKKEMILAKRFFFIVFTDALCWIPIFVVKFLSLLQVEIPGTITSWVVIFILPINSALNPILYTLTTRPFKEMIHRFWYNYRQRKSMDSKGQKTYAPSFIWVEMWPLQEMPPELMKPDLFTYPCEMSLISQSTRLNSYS

B1: RELAX0081 (Fc fusion)
chain 1: DKTHTCPPCPAPEFEGGPSVFLFPPKPKDTLMISRTPEVTCVVVDVSHEDPEVKFNWYVDGVEVHNAKTKPREEQYNSTYRVVSVLTVLHQDWLNGKEYKCKVSNKALPASIEKTISKAKGQPREPQVYTLPPCREEMTKNQVSLWCLVKGFYPSDIAVEWESNGQPENNYKTTPPVLDSDGSFFLYSKLTVDKSRWQQGNVFSCSVMHEALHNHYTQKSLSLSPGGGGGSGGGGSGGGGGSQLYSALANKCCHVGCTKRSLARFC
chain 2: DKTHTCPPCPAPEFEGGPSVFLFPPKPKDTLMISRTPEVTCVVVDVSHEDPEVKFNWYVDGVEVHNAKTKPREEQYNSTYRVVSVLTVLHQDWLNGKEYKCKVSNKALPASIEKTISKAKGQPREPQVCTLPPSREEMTKNQVSLSCAVKGFYPSDIAVEWESNGQPENNYKTTPPVLDSDGSFFLVSKLTVDKSRWQQGNVFSCSVMHEALHNHYTQKSLSLSPGGGGGSGGGGSGGGGGSSWMEEVIKLCGRELVRAQIAICGMSTWS
B2: RELAX0056 (Fc fusion)
chain 1: DKTHTCPPCPAPEFEGGPSVFLFPPKPKDTLMISRTPEVTCVVVDVSHEDPEVKFNWYVDGVEVHNAKTKPREEQYNSTYRVVSVLTVLHQDWLNGKEYKCKVSNKALPASIEKTISKAKGQPREPQVYTLPPCREEMTKNQVSLWCLVKGFYPSDIAVEWESNGQPENNYKTTPPVLDSDGSFFLYSKLTVDKSRWQQGNVFSCSVMHEALHNHYTQKSLSLSPGAPAPAPAPAPAPAPAPAPAGSQLYSALANKCCHVGCTKRSLARFC
chain 2: DKTHTCPPCPAPEFEGGPSVFLFPPKPKDTLMISRTPEVTCVVVDVSHEDPEVKFNWYVDGVEVHNAKTKPREEQYNSTYRVVSVLTVLHQDWLNGKEYKCKVSNKALPASIEKTISKAKGQPREPQVCTLPPSREEMTKNQVSLSCAVKGFYPSDIAVEWESNGQPENNYKTTPPVLDSDGSFFLVSKLTVDKSRWQQGNVFSCSVMHEALHNHYTQKSLSLSPGAPAPAPAPAPAPAPAPAPAGSSWMEEVIKLCGRELVRAQIAICGMSTWS
B3: RELAX0084 (Fc fusion)
chain 1: B2 chain 1
chain 2: DKTHTCPPCPAPEFEGGPSVFLFPPKPKDTLMISRTPEVTCVVVDVSHEDPEVKFNWYVDGVEVHNAKTKPREEQYNSTYRVVSVLTVLHQDWLNGKEYKCKVSNKALPASIEKTISKAKGQPREPQVCTLPPSREEMTKNQVSLSCAVKGFYPSDIAVEWESNGQPENNYKTTPPVLDSDGSFFLVSKLTVDKSRWQQGNVFSCSVMHEALHNHYTQKSLSLSPGGGGGSGGGGSGGGGSGGGGGSSWMEEVIKLCGRELVRAQIAICGMSTWS
B4: RELAX0054 (Fc fusion)
chain 1: DKTHTCPPCPAPEFEGGPSVFLFPPKPKDTLMISRTPEVTCVVVDVSHEDPEVKFNWYVDGVEVHNAKTKPREEQYNSTYRVVSVLTVLHQDWLNGKEYKCKVSNKALPASIEKTISKAKGQPREPQVCTLPPSREEMTKNQVSLSCAVKGFYPSDIAVEWESNGQPENNYKTTPPVLDSDGSFFLVSKLTVDKSRWQQGNVFSCSVMHEALHNHYTQKSLSLSPGAAPAPAPAPAPAPAGSQLYSALANKCCHVGCTKRSLARFC
chain 2: DKTHTCPPCPAPEFEGGPSVFLFPPKPKDTLMISRTPEVTCVVVDVSHEDPEVKFNWYVDGVEVHNAKTKPREEQYNSTYRVVSVLTVLHQDWLNGKEYKCKVSNKALPASIEKTISKAKGQPREPQVYTLPPCREEMTKNQVSLWCLVKGFYPSDIAVEWESNGQPENNYKTTPPVLDSDGSFFLYSKLTVDKSRWQQGNVFSCSVMHEALHNHYTQKSLSLSPGAAPAPAPAPAPAPAGSSWMEEVIKLCGRELVRAQIAICGMSTWS
B5: RELAX0082 (Fc fusion)
chain 1: DKTHTCPPCPAPEFEGGPSVFLFPPKPKDTLMISRTPEVTCVVVDVSHEDPEVKFNWYVDGVEVHNAKTKPREEQYNSTYRVVSVLTVLHQDWLNGKEYKCKVSNKALPASIEKTISKAKGQPREPQVYTLPPCREEMTKNQVSLWCLVKGFYPSDIAVEWESNGQPENNYKTTPPVLDSDGSFFLYSKLTVDKSRWQQGNVFSCSVMHEALHNHYTQKSLSLSPGGGGGSGGGGGSQLYSALANKCCHVGCTKRSLARFC
chain 2: DKTHTCPPCPAPEFEGGPSVFLFPPKPKDTLMISRTPEVTCVVVDVSHEDPEVKFNWYVDGVEVHNAKTKPREEQYNSTYRVVSVLTVLHQDWLNGKEYKCKVSNKALPASIEKTISKAKGQPREPQVCTLPPSREEMTKNQVSLSCAVKGFYPSDIAVEWESNGQPENNYKTTPPVLDSDGSFFLVSKLTVDKSRWQQGNVFSCSVMHEALHNHYTQKSLSLSPGGGGGSGGGGGSSWMEEVIKLCGRELVRAQIAICGMSTWS
B6: RELAX0055 (Fc fusion)
chain 1: B5 chain 1 with G227A, G228P, G229A, G230P, S231A, G232P, G233A, G234P, G235A
chain 2: B5 chain 2 with G227A, G228P, G229A, G230P, S231A, G232P, G233A, G234P, G235A
B7: RELAX0083 (Fc fusion)
chain 1: DKTHTCPPCPAPEFEGGPSVFLFPPKPKDTLMISRTPEVTCVVVDVSHEDPEVKFNWYVDGVEVHNAKTKPREEQYNSTYRVVSVLTVLHQDWLNGKEYKCKVSNKALPASIEKTISKAKGQPREPQVYTLPPCREEMTKNQVSLWCLVKGFYPSDIAVEWESNGQPENNYKTTPPVLDSDGSFFLYSKLTVDKSRWQQGNVFSCSVMHEALHNHYTQKSLSLSPGGGGGGSQLYSALANKCCHVGCTKRSLARFC
chain 2: DKTHTCPPCPAPEFEGGPSVFLFPPKPKDTLMISRTPEVTCVVVDVSHEDPEVKFNWYVDGVEVHNAKTKPREEQYNSTYRVVSVLTVLHQDWLNGKEYKCKVSNKALPASIEKTISKAKGQPREPQVCTLPPSREEMTKNQVSLSCAVKGFYPSDIAVEWESNGQPENNYKTTPPVLDSDGSFFLVSKLTVDKSRWQQGNVFSCSVMHEALHNHYTQKSLSLSPGGGGGGSSWMEEVIKLCGRELVRAQIAICGMSTWS
B8: RELAX0109 (Fc fusion)
chain 1: B1 chain 1
chain 2: B4 chain 2

target: human RXFP2 (human, UniProt Q8WXD0 1-754); assay: cell-based or functional assay
Sequence (Q8WXD0 whole entry): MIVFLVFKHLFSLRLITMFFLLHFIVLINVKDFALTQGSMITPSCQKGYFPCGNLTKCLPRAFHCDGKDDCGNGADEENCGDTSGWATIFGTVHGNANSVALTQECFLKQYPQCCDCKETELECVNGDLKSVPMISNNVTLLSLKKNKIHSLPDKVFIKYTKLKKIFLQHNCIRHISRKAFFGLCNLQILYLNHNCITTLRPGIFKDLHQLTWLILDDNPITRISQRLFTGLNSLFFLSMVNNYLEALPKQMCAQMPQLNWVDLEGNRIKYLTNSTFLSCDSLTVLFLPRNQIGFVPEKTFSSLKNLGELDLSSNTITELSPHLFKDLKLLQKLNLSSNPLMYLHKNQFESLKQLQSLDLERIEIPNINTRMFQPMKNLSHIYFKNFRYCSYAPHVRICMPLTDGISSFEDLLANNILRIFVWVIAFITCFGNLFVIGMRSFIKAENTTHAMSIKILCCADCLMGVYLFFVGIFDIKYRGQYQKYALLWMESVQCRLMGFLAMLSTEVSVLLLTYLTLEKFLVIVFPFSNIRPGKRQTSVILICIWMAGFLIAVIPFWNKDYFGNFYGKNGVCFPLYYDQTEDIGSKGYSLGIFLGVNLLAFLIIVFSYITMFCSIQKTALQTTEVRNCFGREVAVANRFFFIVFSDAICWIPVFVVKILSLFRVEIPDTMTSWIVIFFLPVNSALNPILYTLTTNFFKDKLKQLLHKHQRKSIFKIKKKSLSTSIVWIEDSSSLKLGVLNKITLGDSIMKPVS

EC50 hRXFP2 (M), cAMP assay	Binder
4.92e-08 M	B1
6.48e-08 M	B2
1.2e-08 M	B3
1.53e-08 M	B4
3.81e-08 M	B5
3.39e-08 M	B6
2.42e-08 M	B7

target: T1, mouse RXFP1; assay: cell-based or functional assay

EC50 mRXFP1 (M), cAMP assay	Binder
4.73e-11 M	B1
8.22e-10 M	B8
3.27e-11 M	B2
3.48e-11 M	B3
1.59e-11 M	B4
4.9e-11 M	B5
1.51e-11 M	B6
1.34e-11 M	B7

target: T2, human RXFP1; assay: cell-based or functional assay

EC50 hRXFP1 (M), cAMP assay	Binder
4.51e-11 M	B1
1.72e-09 M	B8
3.87e-11 M	B2
5.34e-11 M	B3
2.89e-11 M	B4
5.68e-11 M	B5
1.88e-11 M	B6
2.81e-11 M	B7
